# Molecular target: HLA-A*02:01 (Homo sapiens, UniProt P04439, D140Y/D185E/D98H/E176V/E277Q/G131W/G231S/I119V/I121R/I166T/I218V/L300P/L318F/N151K/N90K/P208A/P217A/Q86G/Q94H/R138H/R169H/T345S)
# Assay: MHC binding assay (UV-ligand exchange, β2m ELISA)
# Details: MHC class I binding score; binding to HLA-A*02:01 ranged by peptide exchange yield (UV-ligand exchange, β2m ELISA)
# Text: Candidate peptides for T cell based therapies according to the present invention were further tested for their MHC binding capacity (affinity). The individual peptide-MHC complexes were produced by UV-ligand exchange, where a UV-sensitive peptide is cleaved upon UV-irradiation, and exchanged with the peptide of interest as analyzed. Only peptide candidates that can effectively bind and stabilize the peptide-receptive MHC molecules prevent dissociation of the MHC complexes. To determine the yield of the exchange reaction, an ELISA was performed based on the detection of the light chain (β2m) of stabilized MHC complexes. The assay was performed as generally described in Rodenko et al. (Rodenko et al., 2006).
# 96 well MAXISorp plates (NUNC) were coated over night with 2 ug/ml streptavidin in PBS at room temperature, washed 4× and blocked for 1 h at 37° C. in 2% BSA containing blocking buffer. Refolded HLA-A*02:01/MLA-001 monomers served as standards, covering the range of 15-500 ng/ml. Peptide-MHC monomers of the UV-exchange reaction were diluted 100 fold in blocking buffer. Samples were incubated for 1 h at 37° C., washed four times, incubated with 2 ug/ml HRP conjugated anti-β2m for 1 h at 37° C., washed again and detected with TMB solution that is stopped with […]. Absorption was measured at 450 nm. Candidate peptides that show a high exchange yield (preferably higher than 50%, most preferred higher than 75%) are generally preferred for a generation and production of antibodies or fragments thereof, and/or T cell receptors or fragments thereof, as they show sufficient avidity to the MHC molecules and prevent dissociation of the MHC complexes.
row,Peptide exchange,Substance
1,++++ (>75% = ++++),5 (ILDEGHILQL; listed as Homo sapiens) [compound 5]
2,+++ (>50 = +++),6 (SIPDTIASV; listed as Homo sapiens) [compound 6]
3,+++ (>50 = +++),25 (FIDPEQIQV; listed as Homo sapiens) [compound 25]
4,+++ (>50 = +++),26 (KIEDLIKYL; listed as Homo sapiens) [compound 26]
5,++++ (>75% = ++++),27 (TLWYVPLSL; listed as Homo sapiens) [compound 27]
6,+++ (>50 = +++),28 (IVDNTTMQL; listed as Homo sapiens) [compound 28]
7,+++ (>50 = +++),30 (VLFPMDLAL; listed as Homo sapiens) [compound 30]
8,+++ (>50 = +++),32 (GLDIITNKV; listed as Homo sapiens) [compound 32]
9,+++ (>50 = +++),35 (ALFAAGANV; listed as Homo sapiens) [compound 35]
10,++++ (>75% = ++++),38 (KLGFGTGVNVYL; listed as Homo sapiens) [compound 38]
11,+++ (>50 = +++),41 (LLDDPTNAHFI; listed as Homo sapiens) [compound 41]
12,+++ (>50 = +++),44 (FLYTYIAKV; listed as Homo sapiens) [compound 44]
13,++++ (>75% = ++++),46 (VMSSTLYTV; listed as Homo sapiens) [compound 46]
14,+++ (>50 = +++),47 (ALDSDPVGL; listed as Homo sapiens) [compound 47]
15,++++ (>75% = ++++),49 (ALLSQDFEL; listed as Homo sapiens) [compound 49]
16,++ (>20% = ++),50 (HLDQIFQNL; listed as Homo sapiens) [compound 50]
17,+++ (>50 = +++),54 (LLDSGAFHL; listed as Homo sapiens) [compound 54]
18,+ (>10% = +),55 (NLDKLYHGL; listed as Homo sapiens) [compound 55]

row,Peptide exchange,Substance
1,+++ (>50 = +++),57 (GILSFLPVL; listed as Homo sapiens) [compound 57]
2,++++ (>75% = ++++),58 (ILGDWSIQV; listed as Homo sapiens) [compound 58]
3,++++ (>75% = ++++),60 (ILPEAQDYFL; listed as Homo sapiens) [compound 60]
4,+ (>10% = +),63 (SIDDSDPIV; listed as Homo sapiens) [compound 63]
5,++ (>20% = ++),65 (TTLGGFAKV; listed as Homo sapiens) [compound 65]
6,++++ (>75% = ++++),66 (VMFEYGMRL; listed as Homo sapiens) [compound 66]
7,+ (>10% = +),67 (YVDSEGIVRM; listed as Homo sapiens) [compound 67]
8,++++ (>75% = ++++),68 (FLAEAARSL; listed as Homo sapiens) [compound 68]
9,+++ (>50 = +++),69 (IIDDKPIGL; listed as Homo sapiens) [compound 69]
10,+++ (>50 = +++),70 (LIDEAAQML; listed as Homo sapiens) [compound 70]
11,++++ (>75% = ++++),71 (SLDEVAVSL; listed as Homo sapiens) [compound 71]
12,++++ (>75% = ++++),72 (TLLEVDAIVNA; listed as Homo sapiens) [compound 72]
13,+ (>10% = +),73 (ELDKIYETL; listed as Homo sapiens) [compound 73]
14,+ (>10% = +),74 (GTIPLIESL; listed as Homo sapiens) [compound 74]
15,++ (>20% = ++),77 (SIDDVVKKL; listed as Homo sapiens) [compound 77]
16,++++ (>75% = ++++),78 (ALKDLVNLI; listed as Homo sapiens) [compound 78]
17,+++ (>50 = +++),79 (AVDNILLKL; listed as Homo sapiens) [compound 79]

# Second part, the substance before the results:
row,Substance,Peptide exchange
1,1 (FLDVKELML; listed as Homo sapiens) [compound 1],++++ (>75% = ++++)
2,2 (VLLGENVEL; listed as Homo sapiens) [compound 2],+++ (>50 = +++)
3,7 (NLQEKVPEL; listed as Homo sapiens) [compound 7],+++ (>50 = +++)
4,19 (VLAVLGAVVAV; listed as Homo sapiens) [compound 19],+++ (>50 = +++)
5,22 (KLLELQELVL; listed as Homo sapiens) [compound 22],++++ (>75% = ++++)
6,23 (FLGDPPPGL; listed as Homo sapiens) [compound 23],+++ (>50 = +++)
7,24 (SLVAILHLL; listed as Homo sapiens) [compound 24],+++ (>50 = +++)
8,29 (ILDDVAMVL; listed as Homo sapiens) [compound 29],+++ (>50 = +++)
9,36 (SVNGFISTL; listed as Homo sapiens) [compound 36],++ (>20% = ++)
10,37 (TLKEYLESL; listed as Homo sapiens) [compound 37],+++ (>50 = +++)
11,39 (ALPPPPASI; listed as Homo sapiens) [compound 39],+++ (>50 = +++)
12,40 (LLSNTVSTL; listed as Homo sapiens) [compound 40],+++ (>50 = +++)
13,42 (VLKADVVLL; listed as Homo sapiens) [compound 42],++ (>20% = ++)
14,43 (LLPDPLYSL; listed as Homo sapiens) [compound 43],++ (>20% = ++)
15,45 (FVYGEPREL; listed as Homo sapiens) [compound 45],+++ (>50 = +++)
16,48 (HLIGWTAFL; listed as Homo sapiens) [compound 48],++++ (>75% = ++++)
17,51 (LIDKIIEYL; listed as Homo sapiens) [compound 51],++ (>20% = ++)
18,52 (NLDYAILKL; listed as Homo sapiens) [compound 52],+ (>10% = +)
19,53 (ILDEEKFNV; listed as Homo sapiens) [compound 53],+++ (>50 = +++)
20,56 (ILDELVKSL; listed as Homo sapiens) [compound 56],+++ (>50 = +++)
21,59 (IIDDVMKEL; listed as Homo sapiens) [compound 59],++ (>20% = ++)
22,61 (KLSVHVTAL; listed as Homo sapiens) [compound 61],++++ (>75% = ++++)
23,62 (LLDTTQKYL; listed as Homo sapiens) [compound 62],++++ (>75% = ++++)
24,64 (SLGPIMLTKI; listed as Homo sapiens) [compound 64],++ (>20% = ++)
25,75 (FMYAGQLTL; listed as Homo sapiens) [compound 75],++++ (>75% = ++++)
26,76 (QIDSIHLLL; listed as Homo sapiens) [compound 76],+++ (>50 = +++)

# From patent US10640547B2, “Immunotherapy against melanoma and other cancers” (IMMATICS BIOTECHNOLOGIES GMBH, priority 2016, dated 2020)
